Among the data in CN113929780A are 相对结合活性 (relative to the control antibody BY0-0) values, retold here.

Substitutions are numbered along the chain they refer to.

In test [1] the target is 人Claudin18.2 (human Claudin18.2, 密蛋白18.2) (human) (UniProt P56856). The test can be described thus: relative binding activity against the control antibody, after strong-acid stress.
The target is the same in test [2]. Nature of the test: relative binding activity against the control antibody, after repeated freezing and thawing.

B1: BY6-3 (antibody, IgG1, V domains shown)
VH: QVQLVQSGSELKKPGASVKISCKASGYSFTNYGMNWVRQAPGQGLKWMGWINTNTGEPTYAEEFKGRFVFSLDTSVSTAYLQISSLKAEDTAVYYCARLGFGNAMDYWGQGTLVTVSS
VL: DIVMTQSPDSLAVSLGERATMNCKSSQTLLNSGNQKNYLTWYQQKPGQPPKLLIYWATTRESGVPDRFSGSGSGTDFTLTISSLQAEDVAVYYCQNDYTYPLTFGAGTKLEIK
For the molecule B1, the 相对结合活性 (relative to the control antibody BY0-0) in test [1] turned out to be 80%.

B2: BY6-4 (antibody, IgG1, V domains shown)
VH: B1 VH
VL: B1 VL with Q35N, T99S
For B2, in test [1], the 相对结合活性 (relative to the control antibody BY0-0) amounted to 80%.

B3: BY6-1 (antibody, IgG1, V domains shown)
VH: B1 VH
VL: B1 VL with T99S
In the case of B3, the 相对结合活性 (relative to the control antibody BY0-0) in test [2] is above 80%.
